Measured values as given in the DeepSol protein solubility set.

Assay: soluble on expression in E. coli; label from the status in PepcDB or PDB records

Soluble on expression in E. coli, not soluble:
MGSDKIHHHHHHMVGIILASHGEFAKGILQSGAMIFGDQENVQAVTLMPSEGPDDVKAKMKDAIASFDNQDEVLFLVDLWGGTPFNQANSLFEEHKDKWAIVAGMNLPMVIEAYGARLSMESAHEIAASIISTAKEGVKVKPEELEPEDAGKASQGSAKQSNTGAPGSFEYVLARIDSRLLHGQVATAWTKAMQPTRIIVVSDAVAKDELRKKLIQQAAPPGVKAHVVPINHMIKLAKDDQHFGGQRAMLLFENPEDVLRVVEGGVPLKTINVGSMAHSTGKVQPNKVLAFNQEDIDTFNKLKQSGLTFDVRKVPNDSKGNMDEIIKKAQDELNKQK, MGSDKIHHHHHHMVGNYRGMGRFARQLVEPVGASVLGLAPSGVHADEWPCVSQGHGFFPWWEQVELPRLCREQRLDYLLCPYNTGPLRSTGNTRVVAVIHDLIYMEPWHVLPPARSVYQTVGRVYRRHVVPRLVRRADVVLTVSRFTQRELVKKFELREGDVRVVPCTISDDWFEPPVSRTARQPYLFTVAGEVPSKNVGRLLQAFAIARPALGDDARLRIAGIKAEHHAHFLGLADSLGLTNAVELLGYVSREELREQYRQARAFVFASLFEGFGIPLLEAMASGTPVACSNTTSMPEIAGNCALQFDPRSVEDMAEQIRAIWDDSARFEVALGDGVNRARTYSESAVRPSIEDFWAGLA, MGSDKIHHHHHHMVKLKPKGPFTRIPRATTIFGAISNAIRLLYGRKEVEKFIAGFINDDAKITSAFPYDGETYFLPKPLSVDLVVKTLFETKKEDVKKVKKKDYIPLESFEKALRLEEFEVKELPYKVIELPKVSLDRVSNDSSLYFWDLVTFKENSGLYFLYDGSNKLFEKYIVPAMRLLEDQGIGGKGTWGYGLFEVEIEELEIEEPRENSYVTLSPFVPENETSLILWKIVKLGGWSQGKRRPKIPMVVEGSLSREDRGKMITLDLSLSYPVYVYARSFLVRASLPEEAVGHV, MGSDKIHHHHHHMVKNYVLDTNVLIHDPDSIFSFEDNNVIIPLPVLEELDKLKREHGSVGKNAREVIRHLDELRKKGNLRKGIPLENGGILRVMVLEREVENVPRFLHERYVDNIILAYVIELMNREKIPTILVSKDINLRVKADSLGIPAQDYLTDRSELETMPKGYVEIDDEELKKQLKVKVTVEKKLDLLDNFYIDLGGVYGKYRKGKVLRVEPFETMGISPRNREQIFSMDALLDDEIPLVFLVGIAGTGKTLLALACGLYKVLVEKRYKKLIVTRPTVPMGRDIGYLPGELEKKMKPWLQPIMDNLELISSLSGLKIKELEKQEILEVEAISFIRGRSIPKQFIIIDEAQNLTPHEVKTILTRVGEDTKIVLVGDPYQIDTPYLDKDTNGLVYAALKLLESDLSAVIKLEKGERSRLATIAAELL, MGSDKIHHHHHHMVLIRLRPCSAVEKDLIHACSPSASALVSKNEKAMKRFFLTTAILLSSVLASYADSLPSAVRDTVIRAGEKTIMIKDGEDDFEVIIQESMPSGDTIRNEKIFRGVYRNGRSIEQRFRNTLINRPNRDKEMPVWGTYGFGSFEWGELKVDDSHSDIGRSHSYRVSIQIFGDIYRLNKYLVLTYALGWDADIYRITDSKTLKNIDGVTTVVDVPGRAECTLTAAYLKAMPALAFNGVRSNLTVYIAPVLRAKVYSAATTDGPDGRLEKLRRVKLNTFSVEARAGINYRNAGIFFTYSLTPLFRSGKGPKLHPYTIGLSLSL, MGSDKIHHHHHHMVMIQLCEWQQQGQFLSINDQQIFTRQAGDRKAPALLLIHGYPSASWDWEGMWHELTQHYFVVTLDMLGFGFSDKPKNVDYLISQQADIYEAVLQQFGVSHYHILAHDYGDTVAQELLARQLDGNSTLSINSVCFLNGGLFPETHKPLLIQTLLLSPLGPLVSKLINKQKFAVNLQRIFGPSTPPTPQVIDALWQLLNHNNGLAVMHKLINYITQRKQHRERWVGAIINSTIPIKLIAGVKDPISGQHMIDHYRKLIPHADVTELPTLGHYPQVEDANAIIAAYLQFRLNRT, MGSDKIHHHHHHMVRFISNTLSQTLNEPFQQSHKSCKHLYILEILSQVVIVSDQKQVPLQPYDIILAQSFNHLQIDSLDRNPILLRLYSLDFDLPSPLNQYTVGDNPLIHDLMNDHTSEDAYILFTNLSDLICHAYLDALEKLENLRDNNDEQVYIDFQRQKLAGLLFTELLRQHDAKVSKFASRFPSVNVKYASKDSQSGAIMKYVSDNVHHISLKEAAAHFFYQANYFSRLCHELFGISFNQLKTTIRLEIAKEQLRLTTKSVEEISQELGYKAVSNFHRNFKSQTGMTPNDYRQDKQ, MGSDKIHHHHHHMVSFVHSSDLHLGKSFGTFPEDVRVRLQQARLESLTTLADIARTNGARHVLLAGDTFDKMTPAPKVIRGALNAMREAADVTWWVLPGNHDHVNATELWRTFTSDAPANVHALLRPEPVMLTDGVALLPAPPTERHPGRDLTDWFDDAATGDALRIGLAHGSIRGFSAEDGGASVLSFNRARDAGLAYLGLGDWHGQLQVSENTWYSGAPEADSFKHAMDPSALLVEVDGARVTVTPHPTSRLIWRASEVDLIGDEADLPLPPQDRARTLLKLTLTGRARPAVRRDLEAAFDHAAPDFLWAEAEFDGLDLVHETSDLDQIDRQGALRAAAEALVREADDQALSPEARATADAALSLLFTYAAEA, MGSDKIHHHHHHMVSHKKNDRPRPLWILKIHKRLSLFEFKRYATGIGKDDGQDISWVLKGNAKNNVYQVTVETMENCETDECKKVIWVPDELAESTGTMFEDFKEDQPQESVSSISNNEANWGSSVNELDENYEKMQKEETFDPYDSDSDTSEDSDFDEDFEDSDKTMCSGQS, MGSDKIHHHHHHMVSKMTNQRVLTVPGGINFRELGGYSTKDGRKIKWHKVIRTGGLDQLTPTGQALLDDYGVRYDIDFRSPQEVLDAPDRIPANAKYVYAPVFNVDETRNSDGTDKMTANLEKHPDSGFKHMLKVYQMVADEQHAKDEYRRFFDNLLANDQPDSTLLFHCTAGKDRTGMGAVYLLTALGVDFETIKQDYLLTNQASIGRINGAMAEARAQGASDATVESIRALWSVDADYLDAAMTEIKRQSGNLNHYLHTELKLTNNEINDLQRIYLE, MGSDKIHHHHHHMVTETYINKLLAPIRRRITGMLTRAVVSGIVEDLQRQNLQVKMHADESADNIERFQNYGMSSYPPEGAEAIVAALGGALSGLVAIAVEDKKFRPKGESGDVFLYHLEGHKIRLTKDGKIILTAQDVIFEIENSFTISTTDVIFNASGSFTIISPETLIDGPLHVTGDISTDLGITAVNGITSNSVITGSDLSANNISYLGHIHKDAENRPTTAPE, MGSDKIHHHHHHMVTHWLPDLSTAEGPLYIRIADRAEADIKTGRLSSGAKLPPQRDLAFDLKVTIGTITRAYALLRERGLVTGEVGRGTYVQSSLAESETDIHRDPVTLTYGGTRTLSPPPGKLRFDTTAAIDVGQADIIGRLMTDIARDQPDEIASYTRTLLPDWLEAGRRWLSNGDWSPEAANIVPQMGVHAGVNAVIAAISGTGDRIVCEHLTYSQIARSASLMGRQIALVDSDHDGIMPEDFERVCAREHPKAAFIMSSGQNPTLSCLPLSRRLEIIDIARRYNVWLIEDYIYGALVDDGIPLLAQLAPDRTFLLNSLSKSVAAGVRGGWVACPDHMSQRVRVTQKMVCGGLPFLLAELSARLVLSGAADDIRGRVLEELSAREQIVRQLFEGYEFRSHPRLPYFWLKLPEPWLSGTFKQAALDQGVLIDDEDEFKPARSSRVFHHIRAGFSEGRDRSIAEGGLITLRRILDQIPVGSNAVM, MGSDKIHHHHHHMVTQMLEGKKVAILVETEFIPEEIAAYRQHFEELGATVHFMSRLWGNETVQFVSDVDEIGKSLQYLDVNIDFQSVDVNEYAAVIMAANYTSVRLRYFQPPPGQQISPEQTRTAPAIQFFAQAMANHKIIKGLLCHGLWLLTPMPELLRGRKVICHEVVLADIANAGAVYVPPPVNSQPNDPGNIVVDRDLVTGRAGHDVYAFIDAIAHQIASQEQRCLETQRR, MGSDKIHHHHHHMVVLAPHIEWLMETVHIISGLNDGGAEAVLYRLCSSDKAAEHYVISLMDEGKYGALLREAGVQVSCLSMPRGRVTLGGLWRLWRLLRQIRPQAVQTWMYHADLVGGLIARLAGVKQVFWGIHHTTLHAGQSRRSTIWVARLCARISSCLPSAIICCAQKALEAHRELGYAAEKLRVIPNGYDLVRFRVDEDARVRLRTEWNTGSRWLIGMVGRFDPLKDHKNLLDALAIVKYRGVDFCCVLAGRGLDQNNAQLMAWLTELDLAGEVKLLGQRMDIPDVMNALDVHVLSSSSEAFPNVVAEAMACGTSVVTTNVGDAALIVGETGWVVPARNPGMLADALLQAYVAMHDEAAWQVRCTAVRQRVEDHFSLERMVENYHLVWQNKL, MGSDKIHHHHHHMVVRGRLKGVEAEFIDFHVHMPYWIRDPVKSCRRLLLEELTAGAISAVVIGVDASLETIKSRVTPREITEAAMEDFDYLAFQQVGYIGRMIMEPEKFLDDFLGDFHKHRRGPEDLRACRSVEPRFFYTIVSYKPGMEEEVAQIVRSDSSILGVKIFPTFHFTRPDSQRLYPVYKAVEEAGGLVVVHTGCDPGPWELTRFCREARPSYVARAAKRFENLVFVIAHLGAYSALKPGIYFEETLKALSLENVYADTSAADPFFAAMAVKEGYADKILFGSDYPYVSGYNVAMAVKDILSLDIDNNDKEAVLRYNAEKLLNSLPRGRQKPG, MGSDKIHHHHHHMWTEIDTQISRVTGERFQSQQRRSVSGGCINQGYAVADGTLTYFVKLNQASQVAMFEAEALGLEQMLTTNSIRVPKPICWGIAGNSGYIVLEWLEMGSGNTNSWEEMGRNLAKMHKATSQKGYGWDMNNTIGSTPQINTWTEDWTEFYSKHRLGYQFQLARRRGGSFPKQDELLGALPELLADHEVQPSLVHGDLWGGNAGCTVSGEPVIFDPATYFGDREVDIAMTELFGGFPAAFYKGYNQVFPLDAGYEKRKTLYNLYHILNHFNLFGGGYASQANRMIEQILR, MGSDKIHHHHHHMWTSKQQQALDHLAATPSLLVVSDFDGTLAGFSHDAMQVPVNHVAMAALQQLTSLPSTRVALLSGRDVQGLIQVSGAAAPMIVAGSHGAESTEGGLVLNEDQQAALSAVTAALEEIATSVPGAFVEHKPYHRVLHVIRVADQQRARAALDRALALEIPGAKIAEGKWIAEASVVDFTKGTWIKAAQEQYRPSVTLFLGDDTTDENGFAVLGCNDVGIKVGAGDTCATVRLESIDRVGQFLSSLADARSAAQQ, MGSDKIHHHHHHMYHEFTPCAALVPFIDKFWVFKGFTDIGTRFKILADGCTDFIFSIGNMTVPTDEHSMIMQPYRSFFVGPMRSYSNLTATTDSLHMLGVRFQPCGLAAFTNEPLGQFADLRIQSSDINLLFDNSFAEMLCEQPDDSVRIRIIEGYLIRLLTQSIQVDRQIIYATSFIKQSYGQLPVQNLIDKICICQRHFQRKFKDATGYTPKEFSRIIKFQYAIEVLRNAPHTDLSSIALDCGYYDHSHFIKEFKRLAGDVPSYFLTLPNPADEPLTYI

Soluble on expression in E. coli, soluble:
MGSDKIHHHHHHMVRLSEAEVQNPKLGEYQCLADLNLFDSPECTRLATQSASGRHLWVTSNHQNLAVEVYLCEDDYPGWLSLSDFDSLQPATVPYQAATFSESEIKKLLAEVIAFTQKAMQQSNYYLWGGTVGPNYDCSGLMQAAFASVGIWLPRDAYQQEGFTQPITIAELVAGDLVFFGTSQKATHVGLYLADGYYIHSSGKDQGRDGIGIDILSEQGDAVSLSYYQQLRGAGRVFKSYEPQRR
